Test results taken from paper PMC11686378, “Communication between DNA polymerases and Replication Protein A within the archaeal replisome” (Nature Communications, 2024).

T1: RPA^ΔWH (Rpa1/Rpa2(1-179)/Rpa3), RPA lacking the winged-helix domain of Rpa2 (Pyrococcus abyssi)
T1 chain 1: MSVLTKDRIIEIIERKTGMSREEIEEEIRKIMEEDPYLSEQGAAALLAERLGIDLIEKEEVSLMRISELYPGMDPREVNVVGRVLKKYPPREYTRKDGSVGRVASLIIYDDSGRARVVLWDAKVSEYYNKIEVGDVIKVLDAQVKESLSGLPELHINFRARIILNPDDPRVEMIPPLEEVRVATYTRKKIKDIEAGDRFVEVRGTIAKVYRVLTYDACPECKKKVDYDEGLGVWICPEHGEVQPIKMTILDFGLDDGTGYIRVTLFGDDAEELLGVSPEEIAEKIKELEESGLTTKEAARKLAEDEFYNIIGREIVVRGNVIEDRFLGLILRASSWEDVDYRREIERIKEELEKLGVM
T1 chain 2: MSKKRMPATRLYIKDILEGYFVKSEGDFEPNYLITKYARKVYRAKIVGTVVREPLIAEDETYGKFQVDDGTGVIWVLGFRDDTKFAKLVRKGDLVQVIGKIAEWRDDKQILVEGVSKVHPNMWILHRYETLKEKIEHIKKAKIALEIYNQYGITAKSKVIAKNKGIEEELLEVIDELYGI
T1 chain 3: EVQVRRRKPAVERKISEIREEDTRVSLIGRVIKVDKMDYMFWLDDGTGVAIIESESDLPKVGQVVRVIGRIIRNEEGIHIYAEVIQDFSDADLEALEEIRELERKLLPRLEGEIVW

B1: DNA primase PriSL (PriS-PriL heterodimer) from P. abyssi, in solution (complex, Pyrococcus abyssi)
chain 1: MLLREVTKEERKEFYSNEWNAKQIPDFILQNLDKREFGFDHTGEGPSDRKNSYTDVRDLEDYIKATAPYAVYSSVAFYEKPQEMEGWLGAELVFDIDAKDLPLRRCNHEPGKVCPICLNDAKEIARDTLIVLKEELGFEDVHVVYSGRGYHIRVMDGWALSLDSKSRERILSFISASEIEDHSEFRKMLLERRGWFVLNHGYPRVFRLRFGYFILRVKVEHLINFGIRKNIAKRILDNKETIYEEFVRKGILAAFPDGVGIESLAKLFALSTRFSKAYFDGRVTVDLKRILRLPSTLHSKVGLIAKYIGNNERDVMRFNPFKHAVPKFRRKEVKEEYKRFLEENF
chain 2: MLDPFSEKAKELLKEFGSINDFLNSIPRIVDVEEVIERVKIASDRKLLEGFVDIEDIKDLAQFYALLGALSYSPYGLELELVKKANILLYSERIRREKEIRPEEISLRINKAIEFPIDDLKKIERVFGKLPEYTIHLAEFLDLIPGERLSEYYIYNGNVYLRKEDLIKVWMKAFERNIEKSVNMLYEIRDELPGFFREVLGGIKEVAEQEFGKSGEVKAGTLRPDLFPPCVKNALKGVPQGLRNYAITVLLTSFLSYARICPNPPRRNVRVKDCIDDIRIITDEILPLIIEAANRCSPPLFEDQPNEIKNIWYHLGFGYTANPKLEDSGNSTWYFPPNCDKIRANAPQLCTPDKHCKYVRNPLTYYLRRLYLEGRKNASKGGNERGEKRVLQQ
notes: PriS, catalytic small subunit of the DNA primase, Pyrococcus abyssi; PriL, large subunit of the DNA primase, Pyrococcus abyssi, with its C-terminal 4Fe-4S domain; Analyte in BLI on His-Rpa2^WH and on RPA-ssDNA filaments; also called full-length PriSL; source: E. coli BL21 Star (DE3), polycistronic PriS-PriL, purified (heat 60 °C, HisTrap, heparin, SEC)

Experiments:
Details in all cases: both partners purified
[1] = target: T1, RPA^ΔWH (Rpa1/Rpa2(1-179)/Rpa3), RPA …; test: BLI; RPA or RPA^ΔWH nucleoprotein filaments on a 3'-TEG-biotin 50-nt ssDNA held on streptavidin sensors; PriSL (1.56-100 nM) or PolD (15.62-1000 nM) in solution; steady-state analysis; 25 °C, buffer E with 0.2 mg/ml BSA
[2] = target: T2, Replicative DNA polymerase PolD (DP1-DP2 heterodimer) from P. abyssi, in solution (Pyrococcus abyssi); test: BLI; histidine-tagged Rpa2^WH captured on Ni-NTA sensors; PriSL (7.81-500 nM) or PolD (15.62-1000 nM) in solution; steady-state analysis; 25 °C, buffer E with 0.2 mg/ml BSA
T2 construct: DP1, proofreading small subunit of DNA polymerase D, Pyrococcus abyssi; DP2, polymerization large subunit of DNA polymerase D, Pyrococcus abyssi; also called unlabeled PolD; source: E. coli BL21 Star (DE3), purified (heat 60 °C, HisTrap, heparin, SEC)

[3] = target: B1; test: as above

fold weaker interaction than with wild-type RPA filaments (at 12.5 nM PriSL) [1] [fold] | Kd [2] [nM] | Kd [3] [nM] | Binder
7 |  |  | B1
 | 98 ± 49 | 25 ± 9 | Histidine-tagged Rpa2^WH (Rpa2 residues 178-268), C-terminal winged-helix domain of P. abyssi Rpa2 (domain or fragment) MGKHHHHSGHHHTGHHHHSGSHHHTSSSASTGENLYFQGTGGIMMEERSIEEPMEELLEEEIPEEKEENELLEKAKEDILNILRQKRTAISRKYILKKLGDKYDEETIDDAITELLAQGEIYEPETGYYKLL
